In PMC7211935, “Development of a therapeutic anti-HtrA1 antibody and the identification of DKK3 as a pharmacodynamic biomarker in geographic atrophy” (Proceedings of the National Academy of Sciences of the …, 2020):
Blank lines part the entries; values can stand above or below the molecule they belong to.

Experiments:
Assay in all cases: SEC; E. coli-expressed and purified human HtrA1- to 4-PD/PDZ constructs, purified as homotrimers by size-exclusion chromatography; conditions not shown (SI Appendix)
[1] = target: human HtrA2-PD/PDZ (protease domain and PDZ domain) (human)
[2] = target: human HtrA1-PD/PDZ (N domain-deleted HtrA1, protease domain and PDZ domain) (human)
[3] = target: the molecule itself

B1: human HtrA4-PD/PDZ (protease domain and PDZ domain) (domain or fragment)
chain: TGTRSAGPLRRNYNFIAAVVEKVAPSVVHVQLWGRLLHGSRLVPVYSGSGFIVSEDGLIITNAHVVRNQQWIEVVLQNGARYEAVVKDIDLKLDLAVIKIESNAELPVLMLGRSSDLRAGEFVVALGSPFSLQNTATAGIVSTKQRGGKELGMKDSDMDYVQIDATINYGNSGGPLVNLDGDVIGVNSLRVTDGISFAIPSDRVRQFLAEYHEHQMKGKAFSNKKYLGLQMLSLTVPLSEELKMHYPDFPDVSSGVYVCKVVEGTAAQSSGLRDHDVIVNINGKPITTTTDVVKALDSDSLSMAVLRGKDNLLLTVIPETIN
stoichiometry N [3]: 3

B2: human HtrA3-PD/PDZ (protease domain and PDZ domain) (domain or fragment)
chain: GLHQLSSPRYKFNFIADVVEKIAPAVVHIELFLRHPLFGRNVPLSSGSGFIMSEAGLIITNAHVVSSNSAAPGRQQLKVQLQNGDSYEATIKDIDKKSDIATIKIHPKKKLPVLLLGHSADLRPGEFVVAIGSPFALQNTVTTGIVSTAQREGRELGLRDSDMDYIQTDAIINYGNSGGPLVNLDGEVIGINTLKVTAGISFAIPSDRITRFLTEFQDKQIKDWKKRFIGIRMRTITPSLVDELKASNPDFPEVSSGIYVQEVAPNSPSQRGGIQDGDIIVKVNGRPLVDSSELQEAVLTESPLLLEVRRGNDDLLFSIAPEVVM
stoichiometry N [3]: 3

Continued, values first:

stoichiometry N [1]: 3
Molecule: human HtrA2-PD/PDZ (protease domain and PDZ domain) (domain or fragment)

stoichiometry N [2]: 3
Molecule: human HtrA1-PD/PDZ (N domain-deleted HtrA1, protease domain and PDZ domain) (domain or fragment)
